Test results: the nanobody polyreactivity screen of Harvey et al. (2022)

Assay: yeast display, Sf9 membrane polyspecificity reagent, FACS + sequencing; frameworks hold sequencing errors
In short: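 Galactose-induced (36–48 hours) yeast carrying a synthetic nanobody display library were exposed to 10% biotinylated, detergent-solubilized Sf9 membrane reagent at 4 °C for 1 hour. FACS followed streptavidin microbead enrichment, using low and high (top ~1%) gates for expression (anti-HA) and reagent binding (streptavidin). Colony PCR, MiSeq 2 × 250 sequencing and CDR-length filtering followed. Labels for polyreactivity reflect the gate of origin.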

Sequence | polyreactivity (PSR sort gate)
QVQLVESGGGLVQEGGSLRLSCASSGSTFPRYVMGWYRKQTGTESELVAAISSSSGRTFYADSVKGRFTISRDNAKNTVYLQMNSLKPEDTAVYYCAARTSFNVHYWGQGTQVTVSS | high polyreactivity
QVQLVESGGGLVQEGGSLRLSCDASGLILLPYARGWYRQAPGKERELVAAISCSGGSTYYADSVKGRFTISRDNAKNTVYLQMNSLKPEVTAVYYCPARPNRQGFYYWGQGTQVTVSS | high polyreactivity
QVQLVESGGGLVQEGGSLRLTCAASGRTFTVNAMGWYRQAPGKERELVARISYGGARTYYADSVKGRFTISRDNAKNTVYLQMNSLKPEDTAVYYCAAPGPRKYEYDYWGQGTQVTVSS | high polyreactivity
QVQLVESGGGLVQEGGSLRVSCAASGRTFRWYTMGWYRQAPGKEREFVAAITWSGSSTNYADSVKGRFTISRDNAKNTVYLQMNSLKPEDTAVYYCAGEKRRRRDDYWGQGTHVTVSS | high polyreactivity
QVQLVESGGGLVQERGSLRLSCAASGRIFGKYAMAWYRLAPGKERELVATISYGGGNTYYADSVKGRFTISRDNAKNTVYLQMNSMKPEDTAVYYCARVPYAYLRYKPFQQYSYDYWGQGTKVTVSS | high polyreactivity
QVQLVESGGGLVQEVGSLRLSCAASGSTIYWYAMGWSRQAPGKEMEIVAAISLGSGSTYYADSVKGRFTISRDNAKNTVYLQMNSLKPEDTAVYYCATRGSAWGRSYYYWGQGTQVTVSS | high polyreactivity
QVQLVESGGGLVQGGGSLRLRCAASGSILLYYTMGWYRPAPGKERELVAAISWSGVSTYYADSVKGRFTISRDNPMNTVYLQMISLKPVDNEVYYCGTRSVQGSYFAGYCYWGQGPQVTVSS | low polyreactivity
QVQLVESGGGLVQGGGSLRLSCAASGRIFGHYVMGSYRQAPGKERELVAAISYSGGSTYYADSVKGRFTISRDNAKNTVYLQMNSLKPEDTAVFYCAARVTQDSPYGAYYYWGQGTQVTVSS | high polyreactivity
QVQLVESGGGLVQGGGSLRLSCAASGRIFGVNAMGWYRQAPGKERELVATITSGTSTYYADSVKGRFTIARDNATTTVYLQITSLKPEDTAVYYSATSRVIPWDYDSWGQGTQVTVSS | low polyreactivity
QVQLVESGGGLVQGGGSLRLSCAASGRIFTRYTMGWYRPAPGKERELVAASTKRADRTNYADSVKGRFTISRDNAKNTVYLQMNSLKPEDTAVYSCNDAAFSQLRVRYDYWGQGTQVTVSS | low polyreactivity
QVQLVESGGGLVQGGGSLRLSCAASGRTFYGYAMGWYRQAPGKERELVAAITRSGGSTYYADSVKGRFTISRDNAKKTVYLQMNILKPVDTAVYYCAAGGQARHDYWGQGTQVTVSS | low polyreactivity
QVQLVESGGGLVQGGGSLRLSCAASGSIFSDYAMGWYRQAPGKEREFVAPITWSGTSTYYADSVKGRFTISRYNAKNTVYLQMNSLKPEDTAGDYSAADLLFWLGLVPGTIYDEFDYWGQGTQVTVAS | low polyreactivity
QVQLVESGGGLVQGGGSLRLSCDASGCNFRKNAMGWYRQAPGKERDLVAAISWDGDNTYADSVKGRFTISRDNAMNNVYLQLYSLKPVYTAVSYCAAETFTYYDYWGQGTQVNVSS | high polyreactivity
QVQLVESGGGLVQGGGSLRLTCAASGSIFHYYAMGWYRQAPGKERELVAAINSSGGSRTYYADSVKGRFTISRDNAKNTVYLQMNSLKPEDTAVYYCAADYRVVWRAYDYWGQGTQVTVSS | low polyreactivity
QVQLVESGGGLVQGGGSLSLRCAASGSTFDYNAMGWYRQAPGKERDLVAVISGGSSTNYADSVKGRFTISRDNEKNTVYLQMNSLNPEDTAVYYCNARDYFVARAVSFVTYWLGVYWGQGTQVSVSS | low polyreactivity
QVQLVESGGGLVQPGGSLRLSCAASGGIFRSYAMGSYRQAPGKERELVAVITKSGGDTYYADSVKGRFTISRDNAKNTVYLQMNRVKPVDTAVYYCAAVYGYYTYWIPGFTWAVDYWGQGTQVTVSS | low polyreactivity
QVQLVESGGGLVQPGGSLRLSCAASGRIFKRNAMGCYRQAPGKERELVAAITWRGGSTYYADSVKGRFTISRDNAKNTVYLQMKSMKPEDTAVYYCNVGYGGSSDGGYDYWGHGTQVTVSS | high polyreactivity
QVQLVESGGGLVQPGGSLRLSCAASGRTFGSYVMGWYRQAPWKQRELVATISRRGGTTYYADSVKGRVTISRDNAKNSVYLELLSLKPVDTAVYYCADKYFGTRYDYWGQGTQVTVSS | high polyreactivity
QVQLVESGGGLVQPGGSLRLSCAASGRTSEIYTMGWYRPAPGKERELVASINTNSADSVKGRFTISRDNAKNTVYLQMNSLKPEDTAVYYCNADDTIEFNYWGQGTQVTVSS | low polyreactivity
QVQLVESGGGLVQPGGSLRLSCAASGSIASYAMGWYRQAPGKERELVAGISWSGGSTYYADSVKGRFTISRDNAKNTVYLQMNSLKPEDTAVYYCNAYSAFVPPTRGYYWGQGTQVTVSS | high polyreactivity
QVQLVESGGGLVQPGGSLRLSCAASGSIFIGYAMGWYRQAPGKERELVASIRNGGSTNYADSVKGRFTISRDNAKNTVYLQMNSLKPEDTAVYYCAGRYPVFLVSFGFDYWGQGTQVTVSS | low polyreactivity
QVQLVESGGGLVQPGGSLRLSCAASGSTLRRNAMGWYRQATRIERELVSAITGSRGSTYYADSVKGRFTISLDNAKNTVYLQMNCLKPEDTAVYYCAALYYYHLLPSRYYRFVYWGQGTQVTVSS | high polyreactivity

Sequence | polyreactivity (PSR sort gate)
QVQLVESGGGLVQPGGSLRLSCAASRSIFKVYAMGWYRQEPGKEREFVAAITSSDSNTNYADSVKGRFTISRDNAKNTVYLQMHSLKPEDTAVYYCNARIYNRRYVPHYGFNYWGQGTQVTVSS | low polyreactivity
QVQLVESGGGLVQPGGSLRLTCAASGGIFVTYTMGWYRQAPGKDRELVAGINSRSGSTYADSVKGGFTISRDNAKNTVYLQRTSLKLEDTAVYYCAADRIDLGRASRYGYWGQGTQVTVSS | low polyreactivity
QVQLVESGGGLVQSGASLRLSCAASGLIIGLYALGWYRQAPGKERELVAAISDNGARTYYADSVKGRFTISRDNAKNTVYLQMNSLKPEDTAVYYCARDQSYHYNYWGQGTQVTVSS | low polyreactivity
QVQLVESGGGLVQSGGILRLSCAASGSTSPIYAMGWYRQAPGTERELVAAINGVGSTNYADSVKGRFTISRDNAKTTVYFQMNSLKPADTAVYYCAADGTALHEYLGDYDYWGQGTQVTVSS | low polyreactivity
QVQLVESGGGLVQSGGSIRLSCAASGSTFLWYCMGWYRQAPGKERELVASISRGGGTDYADSVKGRFTISRDNAKNTVYLQMNSLKPEDTAVYYCAATGVNRYDHWGQGTHVTVSS | low polyreactivity
QVQLVESGGGLVQSGGSLRLICAASGRNYAMGWYRQAPGKERELVARITKSGTSTYYADSVKGRFTISRDNAKNTVYLQMNSLKPEDTAVYYCNARYWGYWGDHYDYWGQGTQVTVSS | high polyreactivity
QVQLVESGGGLVQSGGSLRLSCAASGGIFRYYVMGWYRQAPGKERELVAPINSGGTTYYEDSVKGRFTISRDNAKNTVYLQMNSLKPEDTAVYFCAAYYAGFGYNYWGQGTQVTVSS | low polyreactivity
QVQLVESGGGLVQSGGSLRLSCAASGIIFNDYAMGWYRQAPGKERELVAAISGRGGRTYYADSVKGRFTISRDNAKITVYLQMNSLKPEDTAVYYCAARVLPTDYYWGQGTQVTVSS | high polyreactivity
QVQLVESGGGLVQSGGSLRLSCAASGIIFQYYAMGWYRQAPGKEMELVAAITSSGGSTFYADSVKGSFTISRDNAKNTVYLQMNSLKPEDTAVYYCAAVYHRSTYDYWGQGTQVNVSS | high polyreactivity
QVQLVESGGGLVQSGGSLRLSCAASGLIFPYYAMGWYRQAPGKERELVAAITGNGGRTYYADSVKGRFTISRDNAKYNVYLQMNSLKPEDTAVYYCAAAGKASSDYYVLGGYWGQGTQVTVSS | high polyreactivity
QVQLVESGGGLVQSGGSLRLSCAASGLTFLNNALGWYRQAPGKERELVAAISDGGSPNYADSVKGRFTISRDNAKNTVFLQMNSLKPEDTAVYYCAAVYTSASYGSWGQGTQVTVSS | low polyreactivity
QVQLVESGGGLVQSGGSLRLSCAASGRTFFENAMGWYRPAPGKEREFVAAISYNGGSTYYADSVKGRFTISRDNAKNTVYLQMNSLKPEDTAVYYCAADPNYGYDYWGQGTQVTVSS | low polyreactivity
QVQLVESGGGLVQSGGSLRLSCAASGSIFWYNARGWYRQAPGKERELVAAINGGGRTYYADSVKGPFTISRDNAKNTVYLQMNSLKPEDTAVYYCAVDPISQGHMDYGGQGTQVTVSS | low polyreactivity
QVQLVESGGGLVQSGGSLRLSCAASGYIFFFNAMGWYRQAPGKERELVAAITRRGVSTYYADSVKGRCTISRDNAKNTVFLQMNSLKPEDTAVYYCATEHNHLGYYYWGQGTQVTVSS | low polyreactivity
QVQLVESGGGLVQSGGSLRLSCAASGYTFLEYTMGWYRQAPGKERELVAAITSGGSTKYADSVKGRFTISRDNAKNTVYLQMNSLKPEDTAVYYCNARHYSREFDYWGQGTQVTVSS | low polyreactivity
QVQLVESGGGLVQSGGSLRLSCAAYGLILTHYSMGRYRQAPGKESELVAAIDYGGGSNTYYADSVKGLFTISRDNAKNTDYLQMNSLKPEDTAVYYCAAYRAGNSYDPRLNYWGQGTQVTVSS | high polyreactivity
QVQLVESGGGLVQSGGSLRLSCAGSGSTLYYYVMGWYRQAPGKERELVAAISSSGDSTYYADSVKGRFTISRDNAKNTVSLQMNSLKPEDTAVYYCNAGWYFYGESTDDYWGQGTQVTVSS | low polyreactivity
QVQLVESGGGLVQSGGSLRLSWAASGSIFVTYAMRCYRPAPGKERELVAAINSGGRTNYADSVKGRFTISRDNAMNTVFLNMNSMKPEDTAVYYCAATGRYFDPYYRYDYWGQGTQVTVSS | low polyreactivity
QVQLVESGGGLVQSGGSLRLTCAASGIIFPRYAMGWYRQAPGKERELVAAITRRGGRTYYADSVKGRFTISRDNAKNTVYLQMNSLKPEDTAVYYCNADFISTRPPKATDEDYWGQGTQVTVSS | high polyreactivity
QVQLVESGGGLVQVGCSLRLSCAASGFTFYNNVMGWYRQAPGKERELVAAITSTGSTSYADSVKGRFTISRDNAKNTVYLQMNSLKPEDTAVVYCARAYYYLLGGHYRHKYYWGQGTQVTVSS | high polyreactivity
QVQLVESGGGLVQVGGSLRLICAASGGIFSGNAMGWYRQAPGKERELVAGITNGGRTTYADSVKGRFTISRDNAKNTVYLQMNSLKPEDTAVYYCAAGKIGRRGHQNRLDLDYWGQGTQVTVSS | low polyreactivity
